Test results published in the Immune Epitope Database (IEDB).
pKd: −log10 of the molar value.

Key:
Assay in all cases: IEDB peptide-MHC binding, purified MHC/competitive/radioactivity; filed as Kd, often an IC50 or EC50 that approximates it; ≥ and ≤ were set here for values at or beyond the usual limits of such assays
HLA-A*02:02 = molecular target: HLA-A*02:02
HLA-A*02:03 = molecular target: HLA-A*02:03
HLA-A*02:06 = molecular target: HLA-A*02:06
HLA-A*03:01 = molecular target: HLA-A*03:01
HLA-A*11:01 = molecular target: HLA-A*11:01
HLA-A*31:01 = molecular target: HLA-A*31:01
HLA-A*33:01 = molecular target: HLA-A*33:01
HLA-A*68:01 = molecular target: HLA-A*68:01
[1] = source organism: Vaccinia virus WR
[2] = source organism: SARS coronavirus Tor2
[3] = source organism: Lassa virus Josiah
[4] = source organism: Mammarenavirus juninense
[5] = source organism: Vaccinia virus Copenhagen

Sequence	pKd (HLA-A*02:02; [1])	pKd (HLA-A*02:03; [1])	pKd (HLA-A*02:06; [1])	pKd (HLA-A*03:01; [1])	pKd (HLA-A*11:01; [1])	pKd (HLA-A*31:01; [1])	pKd (HLA-A*33:01; [1])	pKd (HLA-A*68:01; [1])	other results
FIISTLNKI	8.78	9.38	8.23	–	–	–	–	–	–
HLMSDNPKA	7.24	6.55	6.28	–	–	–	–	–	–
PLPCQLMYAL	6.79	5.06	5.01	–	–	–	–	–	–
NVSRVVECL	6.88	6.03	5.99	–	–	–	–	–	–
DVCKKNLDL	≤ 4.60	5.10	4.79	–	–	–	–	–	–
LLLENKSLTI	6.01	6.01	5.88	–	–	–	–	–	–
SLGKSPLPSL	8.39	7.33	5.84	–	–	–	–	–	–
YTKHSMLTNA	5.41	6.85	5.13	–	–	–	–	–	–
IISSKQYPA	6.79	6.21	5.94	–	–	–	–	–	–
EIKAEMQLKI	4.77	5.32	4.84	–	–	–	–	–	–
IVNTTYDFLA	5.90	5.08	6.02	–	–	–	–	–	–
LIANIFTPLV	–	–	–	–	–	–	–	–	pKd (HLA-A*02:02; [2]): 9.40; pKd (HLA-A*02:03; [2]): 7.87; pKd (HLA-A*02:06; [2]): 7.80
TINALVYFST	4.85	5.13	≤ 4.21	–	–	–	–	–	–
YVIPDELIDV	7.74	7.86	7.91	–	–	–	–	–	–
ELKDLLNVT	5.81	6.68	≤ 4.42	–	–	–	–	–	–
ATICLKNEGV	6.36	7.15	7.37	–	–	–	–	–	–
MICCDSRIVV	6.18	6.41	7.28	–	–	–	–	–	–
LLLEWLAEVV	–	–	–	–	–	–	–	–	pKd (HLA-A*02:02; [2]): 9.51; pKd (HLA-A*02:03; [2]): 9.09; pKd (HLA-A*02:06; [2]): 9.28
IIAVFDSKL	7.36	6.97	7.01	–	–	–	–	–	–
PTEMVDVSM	4.97	≤ 4.38	≤ 4.40	–	–	–	–	–	–
VQTLISLNSM	5.81	5.24	6.07	–	–	–	–	–	–
LITNTKSDNI	5.65	5.51	4.73	–	–	–	–	–	–
SVGTGILFM	5.96	5.65	≤ 4.68	–	–	–	–	–	–

Sequence	pKd (HLA-A*02:02; [1])	pKd (HLA-A*02:03; [1])	pKd (HLA-A*02:06; [1])	pKd (HLA-A*03:01; [1])	pKd (HLA-A*11:01; [1])	pKd (HLA-A*31:01; [1])	pKd (HLA-A*33:01; [1])	pKd (HLA-A*68:01; [1])	other results
VQSVLRDISI	7.11	6.27	6.88	–	–	–	–	–	–
FIQWTGGNI	6.17	7.26	5.23	–	–	–	–	–	–
FTEGKINPLL	6.82	6.23	7.07	–	–	–	–	–	–
NACDKHNKT	4.75	5.03	4.73	–	–	–	–	–	–
VILKDPRIA	4.97	6.22	6.50	–	–	–	–	–	–
RAAIDRQVSV	6.20	7.39	6.67	–	–	–	–	–	–
PISDYSAEV	6.15	6.57	5.55	–	–	–	–	–	–
SIRCVKYLL	6.97	7.25	5.54	–	–	–	–	–	–
IINSVSIIL	6.15	5.54	≤ 4.59	–	–	–	–	–	–
KASTISWMM	6.37	6.25	6.10	–	–	–	–	–	–
AMLKSKNINI	5.78	6.65	6.70	–	–	–	–	–	–
SLKRFTHTTA	6.05	6.14	5.14	–	–	–	–	–	–
PTPKKMNIVT	≤ 4.18	≤ 4.25	≤ 4.16	–	–	–	–	–	–
SMYVIPDELI	7.51	6.94	6.31	–	–	–	–	–	–
GTSVIRSNI	6.41	7.35	5.79	–	–	–	–	–	–
LVFNSISAR	–	–	–	8.37	7.57	8.60	5.98	6.84	–
NSISARALK	–	–	–	7.10	8.40	7.95	8.19	8.31	–
QTIASKKDK	–	–	–	6.50	6.12	6.23	≤ 4.11	6.58	–
HTSVSAKQLR	–	–	–	5.60	6.56	6.79	5.94	7.79	–
YALINLVQY	–	–	–	≤ 4.11	≤ 4.11	≤ 4.69	≤ 4.11	≤ 4.29	–
ITLDTMDDMK	–	–	–	5.50	7.37	4.78	≤ 4.15	6.91	–
NTTYDFLARK	–	–	–	6.16	7.50	5.26	5.35	8.02	–
MSHLKVALY	–	–	–	6.49	5.77	6.15	4.74	6.83	–

Sequence	pKd (HLA-A*02:02; [1])	pKd (HLA-A*02:03; [1])	pKd (HLA-A*02:06; [1])	pKd (HLA-A*03:01; [1])	pKd (HLA-A*11:01; [1])	pKd (HLA-A*31:01; [1])	pKd (HLA-A*33:01; [1])	pKd (HLA-A*68:01; [1])	other results
MLRLFDFNK	–	–	–	–	–	–	–	–	pKd (HLA-A*03:01; [3]): 7.07; pKd (HLA-A*11:01; [3]): 7.30; pKd (HLA-A*31:01; [3]): 6.89; pKd (HLA-A*33:01; [3]): 6.28; pKd (HLA-A*68:01; [3]): 6.24
TSDSKSIENK	–	–	–	4.98	6.27	4.84	≤ 4.47	6.43	–
YTKFWYVNH	–	–	–	–	–	–	–	–	pKd (HLA-A*03:01; [4]): 4.99; pKd (HLA-A*11:01; [4]): 4.75; pKd (HLA-A*31:01; [4]): 6.22; pKd (HLA-A*33:01; [4]): 7.55; pKd (HLA-A*68:01; [4]): 5.19
RMLDTSEKY	–	–	–	5.30	5.01	≤ 4.18	≤ 4.17	≤ 4.11	–
KLKHRDGFTK	–	–	–	–	–	–	–	–	pKd (HLA-A*03:01; [5]): 7.43; pKd (HLA-A*11:01; [5]): 6.88; pKd (HLA-A*31:01; [5]): 6.14; pKd (HLA-A*33:01; [5]): ≤ 4.54; pKd (HLA-A*68:01; [5]): ≤ 4.41
RSLQTIASKK	–	–	–	7.30	7.65	6.74	≤ 4.15	5.93	–
SADASTFLK	–	–	–	–	–	–	–	–	pKd (HLA-A*03:01; [2]): 7.79; pKd (HLA-A*11:01; [2]): 8.53; pKd (HLA-A*31:01; [2]): 7.00; pKd (HLA-A*33:01; [2]): 5.59; pKd (HLA-A*68:01; [2]): 7.92
FVSLVKKNK	–	–	–	≤ 4.11	6.92	≤ 4.11	≤ 4.47	6.67	–
HIVGKSCPK	–	–	–	–	–	–	–	–	pKd (HLA-A*03:01; [3]): 4.96; pKd (HLA-A*11:01; [3]): 4.82; pKd (HLA-A*31:01; [3]): ≤ 4.35; pKd (HLA-A*33:01; [3]): ≤ 4.62; pKd (HLA-A*68:01; [3]): ≤ 4.57
ALDEKWNEFK	–	–	–	6.72	7.01	5.14	≤ 4.15	5.01	–
FIDVHIPKFK	–	–	–	5.97	6.75	5.57	4.88	6.97	–
TMLFTMLRK	–	–	–	–	–	–	–	–	pKd (HLA-A*03:01; [2]): 8.13; pKd (HLA-A*11:01; [2]): 7.70; pKd (HLA-A*31:01; [2]): 6.05; pKd (HLA-A*33:01; [2]): 4.88; pKd (HLA-A*68:01; [2]): 5.80
KSVLDIISSK	–	–	–	–	–	–	–	–	pKd (HLA-A*03:01; [5]): 7.61; pKd (HLA-A*11:01; [5]): 8.05; pKd (HLA-A*31:01; [5]): 6.82; pKd (HLA-A*33:01; [5]): 4.70; pKd (HLA-A*68:01; [5]): 6.57
YFSKQTQTY	–	–	–	4.76	≤ 4.56	≤ 4.60	≤ 4.52	5.76	–
LTTHCTKLR	–	–	–	≤ 4.11	≤ 4.11	5.07	5.34	6.52	–
PSTDVNKQNK	–	–	–	5.90	5.44	5.32	≤ 4.15	≤ 4.57	–
ISSRVDRYSK	–	–	–	≤ 4.56	6.54	5.14	≤ 4.15	6.06	–
ALKYLPIDK	–	–	–	–	–	–	–	–	pKd (HLA-A*03:01; [2]): 6.52; pKd (HLA-A*11:01; [2]): 6.06; pKd (HLA-A*31:01; [2]): 5.18; pKd (HLA-A*33:01; [2]): ≤ 4.31; pKd (HLA-A*68:01; [2]): 5.63
VTDLENRLK	–	–	–	5.65	7.59	4.87	4.88	5.14	–
ILFMEMFFDY	–	–	–	7.50	6.92	5.26	≤ 4.19	6.07	–
MLNRVQILMK	–	–	–	8.89	6.89	6.21	5.56	6.16	–
CAMPYNILDR	–	–	–	5.14	6.73	6.52	6.19	8.06	–
LMAYANQIHH	–	–	–	–	–	–	–	–	pKd (HLA-A*03:01; [4]): 6.28; pKd (HLA-A*11:01; [4]): 5.01; pKd (HLA-A*31:01; [4]): ≤ 4.61; pKd (HLA-A*33:01; [4]): ≤ 4.27; pKd (HLA-A*68:01; [4]): ≤ 4.62
